Results: the Immune Epitope Database (IEDB)
Each block holds one sequence with its values, some of them ahead of it.

Tests used:
[1] = molecular target: HLA-B*15:01; experiment: IEDB peptide-MHC binding, purified MHC/competitive/fluorescence; ≥ and ≤ were set here for values at or beyond the usual limits of such assays
[2] = molecular target: HLA-A*24:02; experiment: as above; conditions: source organism: Zaire ebolavirus
[3] = molecular target: HLA-A*02:01; experiment: as above; conditions: source organism: Zaire ebolavirus
[4] = molecular target: HLA-B*48:01; experiment: IEDB peptide-MHC binding, purified MHC/direct/fluorescence; filed as Kd, often an IC50 or EC50 that approximates it; ≥ and ≤ were set here for values at or beyond the usual limits of such assays; conditions: source organism: West Nile virus
[5] = molecular target: HLA-B*39:01; experiment: as above; conditions: source organism: Influenza A virus (A/kunke/1/71(H3N2))
[6] = molecular target: HLA-B*58:01; experiment: IEDB peptide-MHC binding, purified MHC/competitive/radioactivity; filed as Kd, often an IC50 or EC50 that approximates it; ≥ and ≤ were set here for values at or beyond the usual limits of such assays
[7] = molecular target: HLA-B*51:01; experiment: IEDB peptide-MHC binding, purified MHC/direct/fluorescence; filed as Kd, often an IC50 or EC50 that approximates it; ≥ and ≤ were set here for values at or beyond the usual limits of such assays; conditions: source organism: Escherichia coli O157:H7
[8] = molecular target: HLA-B*07:02; experiment: as above; conditions: source organism: Escherichia coli O157:H7
[9] = molecular target: HLA-B*53:01; experiment: IEDB peptide-MHC binding, purified MHC/competitive/radioactivity; filed as Kd, often an IC50 or EC50 that approximates it; ≥ and ≤ were set here for values at or beyond the usual limits of such assays; conditions: source organism: Dengue virus 2 Jamaica/1409/1983
[10] = molecular target: HLA-A*68:02; experiment: as above; conditions: source organism: Dengue virus 2 Jamaica/1409/1983
[11] = molecular target: HLA-B*51:01; experiment: as above; conditions: source organism: Dengue virus 2 Jamaica/1409/1983
[12] = molecular target: HLA-B*35:01; experiment: as above; conditions: source organism: Dengue virus 2 Jamaica/1409/1983
[13] = molecular target: HLA-A*29:02; experiment: IEDB peptide-MHC binding, purified MHC/competitive/fluorescence; filed as Kd, often an IC50 or EC50 that approximates it; ≥ and ≤ were set here for values at or beyond the usual limits of such assays; conditions: source organism: Giardia lamblia ATCC 50803
[14] = molecular target: HLA-B*40:01; experiment: IEDB peptide-MHC binding, purified MHC/competitive/radioactivity; filed as Kd, often an IC50 or EC50 that approximates it; ≥ and ≤ were set here for values at or beyond the usual limits of such assays; conditions: source organism: SARS coronavirus Tor2
[15] = molecular target: HLA-B*45:01; experiment: as above; conditions: source organism: SARS coronavirus Tor2
[16] = molecular target: HLA-B*40:02; experiment: as above; conditions: source organism: SARS coronavirus Tor2
[17] = molecular target: HLA-B*44:03; experiment: as above; conditions: source organism: SARS coronavirus Tor2
[18] = molecular target: HLA-B*44:02; experiment: as above; conditions: source organism: SARS coronavirus Tor2
[19] = molecular target: HLA-B*18:01; experiment: as above; conditions: source organism: SARS coronavirus Tor2
[20] = molecular target: HLA-B*39:01; experiment: IEDB peptide-MHC binding, purified MHC/competitive/fluorescence; filed as Kd, often an IC50 or EC50 that approximates it; ≥ and ≤ were set here for values at or beyond the usual limits of such assays; conditions: source organism: Zaire ebolavirus
[21] = molecular target: HLA-B*15:01; experiment: as above; conditions: source organism: Zaire ebolavirus
[22] = molecular target: HLA-B*51:01; experiment: as above; conditions: source organism: Zaire ebolavirus
[23] = molecular target: HLA-B*15:17; experiment: as above; conditions: source organism: Zaire ebolavirus
[24] = molecular target: HLA-A*69:01; experiment: as above; conditions: source organism: Zaire ebolavirus
[25] = molecular target: HLA-B*27:03; experiment: as above; conditions: source organism: Zaire ebolavirus
[26] = molecular target: HLA-A*02:01; experiment: as above; conditions: source organism: Zaire ebolavirus
[27] = molecular target: HLA-B*46:01; experiment: as above; conditions: source organism: Zaire ebolavirus
[28] = molecular target: HLA-B*18:01; experiment: as above; conditions: source organism: Zaire ebolavirus
[29] = molecular target: HLA-A*26:01; experiment: as above; conditions: source organism: Zaire ebolavirus
[30] = molecular target: HLA-A*02:03; experiment: IEDB peptide-MHC binding, purified MHC/direct/fluorescence; filed as Kd, often an IC50 or EC50 that approximates it; ≥ and ≤ were set here for values at or beyond the usual limits of such assays; conditions: source organism: Zaire ebolavirus
[31] = molecular target: HLA-A*68:02; experiment: as above; conditions: source organism: Zaire ebolavirus
[32] = molecular target: HLA-A*02:12; experiment: as above; conditions: source organism: Zaire ebolavirus
[33] = molecular target: HLA-B*58:01; experiment: as above; conditions: source organism: Ebola virus - Eckron (Zaire, 1976)
[34] = molecular target: HLA-A*03:01; experiment: as above; conditions: source organism: Zaire ebolavirus
[35] = molecular target: HLA-A*02:11; experiment: as above; conditions: source organism: Zaire ebolavirus
[36] = molecular target: HLA-A*02:19; experiment: as above; conditions: source organism: Zaire ebolavirus
[37] = molecular target: HLA-A*02:16; experiment: as above; conditions: source organism: Zaire ebolavirus
[38] = source organism: Zaire ebolavirus

Sequence: FVTLDGQQF
IC50 [1, 38]: 61.1 µM
IC50 [2]: 17.6 µM
IC50 [3]: ≥ 121 µM

Sequence: GRLVTVNPF
Kd [4]: ≥ 20 µM

Sequence: HHAVPNGTL
Kd [5]: 0.0521 µM

Sequence: LASAILNAHE
Kd ([6]; source organism: Dengue virus 4 Philippines/H241/1956): 0.983 µM

Sequence: LIVKTVLDH
IC50 [1, 38]: ≥ 73.9 µM

Kd [7]: ≥ 20 µM
Kd [8]: 0.0015 µM
Sequence: LPQRHHIML

Sequence: MAAILAYTI
Kd [9]: 0.0132 µM
Kd [10]: 0.00473 µM
Kd ([6]; source organism: Dengue virus 2 Jamaica/1409/1983): 0.00126 µM
Kd [11]: 0.0101 µM
Kd [12]: 1.73 µM

Sequence: PPIPIWLLF
Kd [13]: 0.197 µM

Sequence: RTIHHASAP
IC50 [1, 38]: 36.4 µM
IC50 [3]: ≥ 622 µM

IC50 ([1]; source organism: Homo sapiens): 5.8 µM
Sequence: SYFTNMFATWSP

Sequence: VEYYPLLFIT
Kd [14]: 5.12 µM
Kd [15]: 0.568 µM
Kd [16]: 0.0126 µM
Kd [17]: 8.31 µM
Kd [18]: ≥ 62 µM
Kd [19]: 8.28 µM

Sequence: WLQKIPLQW
Kd [20]: ≥ 20 µM
Kd [21]: ≥ 20 µM
Kd [22]: ≥ 20 µM
Kd [23]: ≥ 20 µM
Kd [24]: ≥ 20 µM
Kd [25]: ≥ 20 µM
Kd [26]: ≥ 20 µM
Kd [27]: ≥ 20 µM
Kd [28]: ≥ 20 µM
Kd [29]: ≥ 20 µM
Kd [30]: ≥ 20 µM
Kd [31]: ≥ 20 µM
Kd [32]: ≥ 20 µM
Kd [33]: 0.693 µM
Kd [34]: ≥ 20 µM
Kd [35]: ≥ 20 µM
Kd [36]: ≥ 20 µM
Kd [37]: ≥ 20 µM
